Ends that are not written are not given here.
What was measured:
wild-type AIMP2 protein = target: T1, wild-type AIMP2 protein (human, UniProt Q13155 1-320); experiment: Western blot of H460 cell lysate
T1 construct: Endogenous protein of H460 cell lysate; also called wild-type (WT) AIMP2
T1 sequence (looked up): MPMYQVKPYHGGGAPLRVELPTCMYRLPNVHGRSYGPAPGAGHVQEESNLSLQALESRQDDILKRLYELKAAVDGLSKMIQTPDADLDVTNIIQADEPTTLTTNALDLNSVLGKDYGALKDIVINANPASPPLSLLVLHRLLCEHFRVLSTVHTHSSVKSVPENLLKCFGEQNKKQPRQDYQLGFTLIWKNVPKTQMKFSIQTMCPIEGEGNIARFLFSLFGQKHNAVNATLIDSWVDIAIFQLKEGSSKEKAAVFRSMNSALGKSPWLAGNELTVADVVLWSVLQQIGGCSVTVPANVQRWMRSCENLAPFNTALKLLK

[1] = target: T2, BSA-conjugated AIMP2-DX2 antigen peptide (human, not fully specified (residue 12); also: C-terminal Cys conjugated to BSA carrier); experiment: ELISA, plate coated with BSA-conjugated antigen peptide, periplasmic extract
T2 construct: The BSA carrier is not written as a chain; also called AIMP2-DX2 antigen peptide (the same peptide used in the rabbit immunization, conjugated to BSA)
T2 peptide: GHVQDYGALKDC

[2] = target: T3, AIMP2-DX2 antigen peptide (human, not fully specified); experiment: antigen pre-adsorption, Western blot of HEK293T lysate, peptide at 100 ug/ml
T3 construct: Used in solution for pre-adsorption in Western blots (100 ug/ml) and as analyte in SPR
T3 peptide: GHVQDYGALKD

[3] = target: T3, AIMP2-DX2 antigen peptide; experiment: SPR, H5 IgG coated on CM5 chip, peptide flowed at various concentrations

B1: H5 Fab (Fab, V domains shown)
VH: QEQLVESGGGLVTPGGTLTLTCTASGFTISSYHMTWVRQAPGKGLEWIGVISNSGGTSYANWAKGRFTISKTSTTVDLKITSPTTEDTATYFCVRGVPGINSNLWGQGTLVTISS
VL: AQVLTQTPSSVSAAVGGTVTINCQSSQSVYSGNWLAWYQQKPGQPPKLLIYSTSTLASGVPSRFKGSGSGTQFTLTVSDLECDDAATYYCAGDYDGYKNAFGGGTKVVVKR
notes: Expressed from pComb3XTT in E. coli and used as periplasmic extract; Detected with anti-HA tag or anti-human Fab secondary antibody, so a tag may be present; also called antibody (Fab) of clone H5; rabbit/human chimeric Fab
- binding result (wild-type AIMP2 protein): no binding
- binding result [1]: binds
- binding result [2]: binds

B2: H5 IgG antibody (antibody, V domains shown)
VH: B1 VH
VL: B1 VL
notes: also called H5 antibody (IgG); H5 antibody
- binding result [3]: binds
